In patent publication US20250034594A1, “RNA-GUIDED GENOME RECOMBINEERING AT KILOBASE SCALE” (THE BOARD OF TRUSTEES OF THE LELAND STANFORD JUNIOR …, priority 2021, published 2025):

B1: SSAP_218: SEQ ID NO: 387; Streptococcus lutetiensis (protein, listed as Streptococcus lutetiensis)
chain: ANQLQMSHKDFFNRPAVKNKFSEVVSGKSDQFITSLLSVVNNNKLLSKADNNSILNAAMKAATLNLPIEPSLGSAYIVPFKGQAQFQLGYKGLIELAQRSGQYKSINAGVVYKAQFKSYDPLFETLDLDFNQPQDEVIGYFACFELLNGFRKITYWTREEVYNHGKRFSKSFNNGPWKTDFDAMAKKTLLKSIIGTYGPKSVDMQEAITDDNKTEYEKAEPIDVTPQEENLTDLIGETPQEELPIANPETGEIQEEQTALFNQLGDLTDD
B2: SSAP_242: SEQ ID NO: 411; Lactococcus sp. S-13 (protein, listed as Lactococcus sp.)
chain: SNQITKTQQTLKSPEVKAKFEEVLGKKADGFVASLLSVVGNSNLKTVEANSVMTAAMKAATLDLPIEPSLGFAYVIPYGREAQFQIGYKGFIQLALRSGQLTGLNCGIVYESQFVSYDPLFEELELDFTQQASGDAVGYFASMKLANGFKKVTYWSKEQVLAHKKKFVKSANGPWRDHFDAMAQKTVLKAMLTKYAPASIESKMIQTAITEDDSERFENAKDVTPDEPVISIDEPVTSEVSQNESSAESQEQFPEDEVEELFPIGKS
B3: SSAP_10: SEQ ID NO: 179; Bet Escherichia coli (protein, listed as Escherichia coli)
chain: STALATLAGKLAERVGMDSVDPQELITTLRQTAFKGDASDAQFIALLIVANQYGLNPWTKEIYAFPDKQNGIVPVVGVDGWSRIINENQQFDGMDFEQDNESCTCRIYRKDRNHPICVTEWMDECRREPFKTREGREITGPWQSHPKRMLRHKAMIQCARLAFGFAGIYDKDEAERIVENTAYTAERQPERDITPVNNETMQEINTLLIALDKTWDDDLLPLCSQIFRRDIRASSELTQAEAVKALGFLKQKATEQKVAA
B4: SSAP_23: SEQ ID NO: 192 (protein)
chain: TNNQLATQIKRDITTDPSLLTGADIKKYFDPQNLLTEKQVGQALALCKGRNLNPFANEVYIVAYQNNSGTEFSLIVSKEAFMKRAERCEGYDGFEAGITVMRNGEMIEIEGSLKLPEDILIGGWAVVYRKDRSHRYKVTVDFNEYVKTDRNGNPRSTWKSMPATMIRKTALVQTLREAFPDELGNMYTDIDGGDTFDAIKDVTPQESREDVVARKMAQIDQFNKEQEANHADPEPTQNEDPIQGELLDGELEY
B5: SSAP_154: SEQ ID NO: 323; Corynebacterium urealyticum (protein, listed as Corynebacterium urealyticum)
chain: AKNLEARMQQSTNAPARADKPLSLPDQIRQMEDQFRLAMPKGAEATQLVRDALTCLRQTPQLAQCTPASVLGGLMTCAQLGLRPGVLGHAYLIPFNDRRSGNSVAQLVIGYQGLVELAHRSGQIKALIARTVYENDHFDVDYGLEDKLVHKPHMGADKGNPVAYYAVVKFTTGGHAFYVMSHPEMLQYRDKNAKSPKRGPWVDNFEAMAHKTCVRQLAKWMPKSTEFSQALATDESIRLDVTPDAINYPDHPAEGEVIDGEVEQDGGQQ
B6: SSAP_64: SEQ ID NO: 233 (protein)
chain: SELQQAAQGQQSNNPVSFIYSHAKDIQNVLTKGTDMDRWLQMARLAVMRDQNLVASAKRDPGSLMQALLDCAEKGHVPGTEDYYLVPRKGGIQGMESWKGIAKRIMRSGRYQSIVNEVVYEGETFEFNPNTMDRPVHNINYMTRTSGKPVMSYAYALDHDGKPSSVAIADPRYIAKVKKNSRGSVWEDWDEQMYRKTAVKMLQDYVDTSSVDRRDVSTVQVDDANVIDVDDTFTAREAGE
B7: SSAP_257: SEQ ID NO: 426; Listeria (multispecies) (protein, listed as Listeria sp.)
chain: ATNDELKNQLANKQNGGQVASAQSLDLKGLLEAPTMRKKFEKVLDKKAPQFLTSLLNLYNGDDYLQKTDPMTVVTSAMVAATLDLPIDKNLGYAWIVPYKGRAQFQLGYKGYIQLALRSGQYKSINVIEVREGELLKWNRLTEEIELDLDNNTSEKVVGYCGYFQLINGFEKTVYWTRKEIEAHKQKFSKSDFGWKKDYDAMAKKTVLRNMLSKWGILSIDMQTAVTEDEAEPRERKDVTEDESIPDIIDAPITPSDTLEAGSEVQGSMI
B8: SSAP_314: SEQ ID NO: 483; Ferrimonas kyonanensis (protein, listed as Ferrimonas kyonanensis)
chain: NQMINEPDFVTALKDSRETYIDLTQNGGFNLNYGLEAGWAHQQIEASRYQNLDLTCSEPGSIMQAFCEAARLGLSFDPRKKHIYLMGQKDVQSGRTITILYVGYKGMIALACRTGFMIGGHADLVFEEDTFTYRSGTQLPVHEHDGRPNHERGRLKCGYVVAHQPGGMVKTLLVPKEVLLEAASNGLNAGGSNNTWCGPYMEMMYQKTCWRYAFNAWYSELEAVGMTQAQLESATTAVSYQ
B9: SSAP_239: SEQ ID NO: 408; Paenibacillus polymyxa (protein, listed as Paenibacillus polymyxa)
chain: PDKLLVIHDNLNKMLDEKSEAMPTSFNKTRFLQNCMAVLQDTKDIEQCDAKSVARTMLKGAFLGLDFFNKECYAIPYNENIGTKNKPRWIKSLQFQTDYKGEKKLAKKYSTRRVKDIYAKLVRDGDDFREEIESGQPTINFRPLPFNDGIIRGAFAVALFEDGGMIYETMSLKEIEKTRDDYSKQSTGKAWTKSPGEMYKKTVLRRLCKNIELDFDTIEQAQAFEDSSDFDMNKELKPQQQSPLNPNTTIIDAEYEEIKEEPADGPEQE
B10: SSAP_98: SEQ ID NO: 267; Pseudomonas fluorescens (protein, listed as Pseudomonas fluorescens)
chain: NSTAETATPFSSQDLEKTQPTKAQSKTGSLASLLASPKMKSQFAAALPKHMTPERMARIVTTEIRKNPELVKCEQHSFLGAVIQCAQLGLEPGNTLGHAYILPYGKQAQLIIGYRGMIDLARRSGQIISISARTVREGDYFEYEFGLDENLIHRPVETTQPGAVTHVYAVARLKDGGRQFEVMSRAQIEEVRVQSKAAKSGPWVTHWEEMAKKTVIRRVFKYLPVSVEIQRAVMLDEKAEAGVCQENECVFDGDFEVITDTEE
B11: SSAP_30: SEQ ID NO: 199 (protein)
chain: EKPKLIQRFAERFSVDPNKLFDTLKATAFKQRDGSAPTNEQMMALLVVADQYGLNPFTKEIFAFPDKQAGIIPVVGVDGWSRIINQHDQFDGMEFKTSETKVSLDGAKECPEWMECIIYRRDRSHPVKITEYLDEVYRPPFEGNGKNGPYRVDGPWQTHTKRMLRHKSMIQCSRIAFGFVGIFDQDEAERIIEGQATHVVEPSVIPPEQVDDRTRGLVYKLIERAEASNAWNSALEYANEHFQGVELTFAKQEIFNAQQQAAKALTQPLAS
B12: SSAP_104: SEQ ID NO: 273; Salinicoccus albus (protein, listed as Salinicoccus albus)
chain: STNESLKNQVATNQKNEVSNGNKPKTIGDYIDQMAPAMAQALPKHMSVERMTRMATTVIRTTPQLKEADVASLLGAVMQSAQLGLEPGPMGHCYFLPFKNNKKGTTEVTFIIGYKGMIDLARRSGHISTIYAHAVYENDEFEYELGLHADLKHKPSEDERGAFKGAYAVAHFKDGGYQFEYMPKSDIDKRRSRSKAGNSNYSPWATDYEEMAKKTVIRHMWKYLPVSVEMQQAVAHDEGTGKDIKDVTPDEDSFVDMPEYIADVPAEGEGE

What was measured:
Format in all cases: cell-based
gene editing with dCas9 = test: Screen of 322 new SSAP proteins, gene editing activity with dCas9 (Table 5); parameters: dCas9 with SSAP activity: scale not given here
Summary of the method: (§1)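 Synthetic SSAP candidates, identified computationally, were tested in editing screens using both Cas9 and dCas9.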

[1] = tested on: gene editing with Cas9 and dCas9; test: Screen of 322 new SSAP proteins, activity across all experiments (Cas9 and dCas9, Table 5); parameters: scale not given here
Summary of the method: as §1

gene editing with Cas9 = test: Screen of 322 new SSAP proteins, gene editing activity with Cas9 (Table 5); parameters: Cas9 with SSAP activity: scale not given here
Summary of the method: as §1

mammalian cells = test: Arrayed SSAP library screening, cell viability by live cell counts via flow cytometry
Method: (§2) Each SSAP encoding plasmid was tested in duplicate, including a negative control (same plasmid encoding Flag_HA which is not expected to promote gene editing). Transfections were in 96-well plates and transfection efficiency was estimated to be 50%.
(§3) Three days after transfection, mKate positive cells and cell viability were quantified across all replicates, along with positive (original RecT SSAP) and negative (Flag-HA control protein) controls. […] At the same time, the cell viability was measured by live cell counts via flow cytometry, to help quantify the fitness effect of SSAP on mammalian cells.
(§4) SSAP proteins are identified by Uniparc deposit number and SEQ ID NO. Alignment numbers correspond to SSAPs in FIGS. 58, 59, and 60.

[2] = tested on: endogenous genome targets (ACTB, HSP90AA1); test: Arrayed SSAP library screening, mKate knock-in assay (editing efficiency); conditions: average of HSP90 and ACTB, 3 days after transfection
Method: Arrayed SSAP library screening on endogenous genome targets (ACTB. HSP90AA1) using mKate knock-in assay.
SSAP-encoding plasmids were purified and quantified.
as §2, §3, §4

Molecule | dCas9 with SSAP activity (gene editing with dCas9) | dCas9 with SSAP activity (normalized) (gene editing with dCas9) | Activity across all experiments [1] | Cas9 with SSAP activity (gene editing with Cas9) | Cas9 with SSAP activity (normalized) (gene editing with Cas9) | Cell Viability (Average, two targets) (mammalian cells) | Editing Efficiency (Normalized, Average, two targets) ([2]; fold over negative control (Flag_HA)) | Editing Efficiency (Absolute, Average, two targets) ([2]; percent of mKate knock-in)
B1 | −2.770 | −0.443 | −4.836 | −6.903 | −1.680 | – | – | –
B2 | 3.640 | 2.062 | 2.999 | 2.358 | 1.579 | – | – | –
B3 | – | – | – | – | – | 1.237 | 5.75 | 14.25
B4 | −2.835 | −0.450 | −0.998 | 0.839 | 0.359 | – | – | –
B5 | −2.710 | −0.380 | −1.758 | −0.806 | −0.733 | – | – | –
B6 | −2.755 | −1.023 | −0.583 | 1.588 | 1.090 | – | – | –
B7 | −2.649 | −1.189 | −1.217 | 0.216 | 0.821 | – | – | –
B8 | −2.593 | −0.657 | −1.240 | 0.114 | 0.106 | – | – | –
B9 | 2.282 | 1.278 | 1.811 | 1.340 | 0.516 | – | – | –
B10 | −2.696 | −0.444 | −0.971 | 0.754 | 0.207 | – | – | –
B11 | −2.667 | −0.795 | −0.927 | 0.813 | 0.564 | – | – | –
B12 | −2.685 | −0.421 | −3.455 | −4.226 | −0.744 | – | – | –
